Substitutions are numbered along the chain they refer to.

For assay [1], the target named is T1, human LAG-3 expressed on cells (human, UniProt P18627 23-525).
T1 construct: whole, on cells; also called CD223
T1 sequence (looked up): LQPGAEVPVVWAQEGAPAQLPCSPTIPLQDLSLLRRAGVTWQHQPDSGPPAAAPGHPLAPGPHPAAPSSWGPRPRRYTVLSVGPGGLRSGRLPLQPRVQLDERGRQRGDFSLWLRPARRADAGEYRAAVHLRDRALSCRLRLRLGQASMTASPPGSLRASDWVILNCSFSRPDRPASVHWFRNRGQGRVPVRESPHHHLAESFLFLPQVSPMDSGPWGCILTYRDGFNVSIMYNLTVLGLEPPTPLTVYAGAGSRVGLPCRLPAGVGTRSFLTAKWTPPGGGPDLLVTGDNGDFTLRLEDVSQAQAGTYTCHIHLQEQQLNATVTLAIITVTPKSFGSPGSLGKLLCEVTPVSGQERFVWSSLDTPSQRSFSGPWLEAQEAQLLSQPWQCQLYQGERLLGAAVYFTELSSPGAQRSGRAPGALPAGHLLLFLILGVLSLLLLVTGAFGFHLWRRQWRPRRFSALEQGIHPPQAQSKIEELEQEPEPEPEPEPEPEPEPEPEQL
The experiment in a line: flow cytometry, Fab periplasmic extract on Jurkat cells expressing human LAG-3 (FIGS. 1A-1C). How it is done:
The anti-LAG-3 Fabs from periplasmic extracts were tested for binding to LAG-3-expressing cells using flow cytometry. Briefly, wild type and human LAG-3-expressing Jurkat cells were plated at 2×10⁵ cells/well in sample buffer (PBS (Gibco, Cat #10010-015)+0.5% FBS (Gibco, Cat #10270-106)) in 96-well U-bottom plates (Sarstedt). 22 μl of anti-LAG-3 Fab periplasmic extract and 83 μl of diluted anti-c-myc antibody (Gentaur, Clone #9E10, Cat #04-cmyc-9E10) were incubated for 30 minutes at room temperature. 100 μl of the periplasmic extract/anti-c-myc mixture was added to cells and then incubated for one hour on ice. Cells were washed three times and then incubated with a goat anti-mouse APC (BD Biosciences, Cat #550826) for 30 minutes on ice. Cells were washed three times and then analyzed with a FACS machine (BD Accuri6).

In another assay the target is T2, human LAG-3 (human, UniProt P18627 23-450, limits assumed).
T2 construct: Selections used human LAG-3-Fc, human LAG-3-6His, a 30 aa LAG-3 peptide and/or cells with cynomolgus LAG-3; also called CD223
T2 sequence (looked up): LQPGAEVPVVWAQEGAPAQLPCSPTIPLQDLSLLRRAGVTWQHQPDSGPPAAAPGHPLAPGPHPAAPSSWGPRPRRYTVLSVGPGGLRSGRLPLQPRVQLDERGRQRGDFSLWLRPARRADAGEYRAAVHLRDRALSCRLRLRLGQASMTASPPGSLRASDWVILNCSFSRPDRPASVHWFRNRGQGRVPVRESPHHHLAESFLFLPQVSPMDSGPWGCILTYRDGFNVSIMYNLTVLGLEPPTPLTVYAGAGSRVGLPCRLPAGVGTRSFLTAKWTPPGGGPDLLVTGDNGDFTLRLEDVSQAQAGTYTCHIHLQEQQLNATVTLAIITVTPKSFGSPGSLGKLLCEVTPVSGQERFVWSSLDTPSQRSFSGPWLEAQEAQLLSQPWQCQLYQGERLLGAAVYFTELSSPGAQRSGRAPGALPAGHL
The experiment in a line: Fab phage display selection; periplasmic extracts screened by ELISA or flow cytometry. An excerpt: Anti-LAG-3 antibodies were identified by generation and selection of an immunized Fab phage display library. […] Per mouse, a Fab library was then generated by random-primed cDNA using total RNA as a template to amplify variable regions from mouse antibody genes. Heavy and kappa chain amplicons were combined and cloned into phagemid vectors. […] The 30 amino acid human LAG-3 peptide is a biotinylated peptide comprising the amino acid sequence of […] (SEQ ID NO: 199). Periplasmic extracts of selected Fab clones were then screened by ELISA or flow cytometry. Antibody sequencing and off-rate analysis were then performed on anti-LAG-3 Fabs.

B1: P13G05 Fab (Fab, V domains shown)
VH: QVQLQQSGAELVKPGASVELSCTASGFNIRDTYMYWVKQRPEQGLEWIGRIDPANGNTKFDPKFQDRATMTADTSSNTAYLQLSSLTSEDTAVYYCTTYFYRYDVGGFDYWGQGTTLTVS
VL: EIVLTQSPALMAASPGEKVTITCSVSSSISSSNLHWYQQKSGTSPKLWIYGTSNLASGVPVRFSGSGSGTSYSLTISSMEAEDAATYYCQQWSSYPFTFGSGTKLEIK
notes: Murine Fab, periplasmic extract
As for B1, the binding result (in assay [1]; with human LAG-3) was “binds” throughout.

B2: P13B01 Fab (Fab, V domains shown)
VH: B1 VH with Q1E, E19K, R30K, M34I, Q43R, D66G, R67T, M70I
VL: B1 VL with I2N
notes: as for B1
B2: the binding result (in assay [1]; in the assay with human LAG-3) was “binds” throughout.

B3: P13F06 Fab (Fab, V domains shown)
VH: B1 VH
VL: B1 VL with V3L
notes: as for B1
B3: the binding result (in assay [1]; with human LAG-3) was “binds” in each case.

B4: P15C02 Fab (Fab, V domains shown)
VH: B1 VH
VL: B1 VL with E1D, I2V, L4M, S7T
notes: as for B1
Regarding B4, the binding result (in assay [1]; with human LAG-3) was “binds” in each case.

B5: P13D05 Fab (Fab, V domains shown)
VH: B1 VH with S7P, E46G
VL: B1 VL with Y37F, Q38R
notes: as for B1
On to B5, for which the binding result (in assay [1]; in the assay with human LAG-3) was “binds” each time.

B6: P14F01 Fab (Fab, V domains shown)
VH: B1 VH
VL: B1 VL with I2N, S94T
notes: as for B1
On to B6, for which the binding result (in assay [1]; with human LAG-3) was “binds” each time.

B7: P13G04 Fab (Fab, V domains shown)
VH: B1 VH with Q1E, Q3K, Q5M, Q6E, V18A
VL: B1 VL with I2N, Y37F
notes: as for B1
For B7, the binding result (in assay [1]; with human LAG-3) was “binds” throughout.

B8: P14G01 Fab (Fab, V domains shown)
VH: B1 VH with Q5K, Q6E
VL: B1 VL with E1D, Y37F
notes: as for B1
Consider B8, for which the binding result (in assay [1]; in the assay with human LAG-3) was “binds” throughout.

B9: P13C10 Fab (Fab, V domains shown)
VH: B1 VH
VL: B1 VL with I2N, Y37F
notes: as for B1
Take B9: the binding result (in assay [1]; with human LAG-3) was “binds” in each case.

B10: P13C06 Fab (Fab, V domains shown)
VH: B1 VH with L4M, Q5K, R30T, Y101D, R102K, F108C
VL: B1 VL with H35Y, Y37F, Q39H, E80D, D83N, S93R
notes: as for B1
For the molecule B10, the binding result (in assay [1]; in the assay with human LAG-3) was “binds” in each case.

B11: P13G01 Fab (Fab, V domains shown)
VH: B1 VH with Q1E
VL: B1 VL with E1Q
notes: as for B1
Take B11: the binding result (in assay [1]; with human LAG-3) was “binds” in each case.

B12: P13A04 Fab (Fab, V domains shown)
VH: B1 VH with S7P, E89A
VL: B1 VL with E1D, S78N
notes: as for B1
As for B12, the binding result (in assay [1]; with human LAG-3) was “binds” throughout.

B13: P01A12 Fab (Fab, V domains shown)
VH: B1 VH with Q1E, E19K, R30K, E46D, D66G, R67K, M70I, T97S, F100Y
VL: B1 VL with E1D
notes: as for B1
For the molecule B13, the binding result (in assay [1]; with human LAG-3) was “binds” in each case.
